Consider seven compounds from paper PMC8739950, “The MocR/GabR Ectoine and Hydroxyectoine Catabolism Regulator EnuR: Inducer and DNA Binding” (Frontiers in Microbiology, 2021).

Like-named read-outs stand apart in the source and are kept apart here.

Broadly, the Kd is the concentration at which binding is half-saturated. Lower therefore signals higher affinity. The term stoichiometry N denotes a count of units in the complex or per binding partner.

Series [1] has as its target T1, EnuR (Ruegeria pomeroyi, UniProt Q5LUA6).
T1 construct: gene gntR; full-length EnuR with C-terminal Strep-tag-II, PLP-containing
T1 sequence (Q5LUA6 1-464): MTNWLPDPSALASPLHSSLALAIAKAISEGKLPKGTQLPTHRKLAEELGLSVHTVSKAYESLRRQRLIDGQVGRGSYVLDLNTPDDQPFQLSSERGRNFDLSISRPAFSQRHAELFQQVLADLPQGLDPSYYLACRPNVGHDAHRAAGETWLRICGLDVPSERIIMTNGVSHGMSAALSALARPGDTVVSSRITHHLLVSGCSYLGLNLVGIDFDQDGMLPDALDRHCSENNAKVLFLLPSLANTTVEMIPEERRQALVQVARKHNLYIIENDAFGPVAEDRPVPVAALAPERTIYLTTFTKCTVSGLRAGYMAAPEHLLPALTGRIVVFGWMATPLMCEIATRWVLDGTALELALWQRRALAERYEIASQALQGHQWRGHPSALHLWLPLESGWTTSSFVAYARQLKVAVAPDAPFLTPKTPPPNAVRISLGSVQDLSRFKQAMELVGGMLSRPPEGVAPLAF
The series can be described thus: microscale thermophoresis. It is filed as binding. For orientation: In MST a laser heats a spot of the sample, and binding alters the fluorescence response.

Series [2] addresses T2, EnuR (Ruegeria pomeroyi, UniProt Q5LUA6).
T2 construct: gene gntR; full-length EnuR with C-terminal Strep-tag-II, PLP-containing
The series can be described thus: microscale thermophoresis. It is filed as binding. This is another data set of the same source.

The target in series [3] is C-terminal aminotransferase domain (ATD) of wild-type EnuR from Ruegeria pomeroyi DSS-3, Strep-tag II fusion (Ruegeria pomeroyi DSS-3). In words: SEC; HiLoad 16/600 Superdex 200 pg column; masses estimated against marker proteins (thyroglobulin, alcohol dehydrogenase, bovine albumin, carbonic anhydrase); quaternary assembly of the Strep-Tactin purified proteins.
For series [4], the target named is C-terminal aminotransferase domain of the EnuR* (Lys302His) mutant from Ruegeria pomeroyi DSS-3, Strep-tag II fusion (Ruegeria pomeroyi DSS-3). Described as above.
The target in series [5] is Ectoine nutrient utilization regulator (EnuR) from Ruegeria pomeroyi DSS-3, full-length wild type, EnuR-Strep-tag II (Ruegeria pomeroyi DSS-3). The series is described as above.
For series [6], the target named is EnuR* (Lys302His) mutant of full-length EnuR from Ruegeria pomeroyi DSS-3, EnuR*-Strep-tag II (Ruegeria pomeroyi DSS-3). Described as above.
The test system of series [7] is EnuR (C-terminal Strep-tag II fusion, PLP-bound) (Ruegeria pomeroyi DSS-3). In words: MST. Particulars: PLP-containing EnuR, 200 nM; MST: 10 mM Tris-HCl pH 7.5, 150 mM NaCl, 0.07% Tween20, 21 C; 200 nM NT-647-labeled EnuR titrated with DNA.

Turning to `CC(=O)N[C@H](C(=O)O)[C@@H](O)CN` [hydroxy-α-ADABA], at EnuR [1], the Kd amounted to 430 ± 200 nM. Regarding `CC(=O)N[C@@H](CCN)C(=O)O` [α-ADABA], the Kd at EnuR [2] turned out to be 2550 ± 500 nM. Consider “C-terminal aminotransferase domain (ATD) of wild-type EnuR from Ruegeria pomeroyi DSS-3, Strep-tag II fusion (domain or fragment)”, for which the stoichiometry N in series [3] was 2. Turning to “C-terminal aminotransferase domain of the EnuR* (Lys302His) mutant from Ruegeria pomeroyi DSS-3, Strep-tag II fusion (domain or fragment)”, in series [4], the stoichiometry N is 2. Consider “Ectoine nutrient utilization regulator (EnuR) from Ruegeria pomeroyi DSS-3, full-length wild type, EnuR-Strep-tag II (natural protein)”, for which the stoichiometry N in series [5] is 2. Turning to “EnuR* (Lys302His) mutant of full-length EnuR from Ruegeria pomeroyi DSS-3, EnuR*-Strep-tag II (natural protein)”, in series [6], the stoichiometry N was 2. “TAACATTGTCGCGCGACAATAAAAAAATTGACATGCAGTACAATTCCC (double strand) [MST BS WT 48 bp promoter/operator fragment]”: the Kd in series [7] stood at 1900 nM.
